Results from paper PMC4776140, “Stimulation of translation by human Unr requires cold shock domains 2 and 4, and correlates with poly(A) binding protein interaction” (Scientific Reports, 2016).

Target: T1, GST-tagged PABP1 (UniProt P11940 1-636)
T1 construct: also called GST-PABP1; source: E. coli BL21(DE3) from pGEX2T, purified (glutathione Sepharose 4B)
Experiment: pull-down; as the GST pull-down, with 0.1 mg/ml RNase A added to the TnT reaction, 30 min at 30 °C before pull down; value relative to no RNase A
Settings: one partner purified

B1: wild type Unr, in vitro translated, 35S-labelled (natural protein, human, UniProt O75534-2 1-767, looked up)
chain: MSFDPNLLHNNGHNGYPNGTSAALRETGVIEKLLTSYGFIQCSERQARLFFHCSQYNGNLQDLKVGDDVEFEVSSDRRTGKPIAVKLVKIKQEILPEERMNGQEVFYLTYTPEDVEGNVQLETGDKINFVIDNNKHTGAVSARNIMLLKKKQARCQGVVCAMKEAFGFIERGDVVKEIFFHYSEFKGDLETLQPGDDVEFTIKDRNGKEVATDVRLLPQGTVIFEDISIEHFEGTVTKVIPKVPSKNQNDPLPGRIKVDFVIPKELPFGDKDTKSKVTLLEGDHVRFNISTDRRDKLERATNIEVLSNTFQFTNEAREMGVIAAMRDGFGFIKCVDRDVRMFFHFSEILDGNQLHIADEVEFTVVPDMLSAQRNHAIRIKKLPKGTVSFHSHSDHRFLGTVEKEATFSNPKTTSPNKGKEKEAEDGIIAYDDCGVKLTIAFQAKDVEGSTSPQIGDKVEFSISDKQRPGQQVATCVRLLGRNSNSKRLLGYVATLKDNFGFIETANHDKEIFFHYSEFSGDVDSLELGDMVEYSLSKGKGNKVSAEKVNKTHSVNGITEEADPTIYSGKVIRPLRSVDPTQTEYQGMIEIVEEGDMKGEVYPFGIVGMANKGDCLQKGESVKFQLCVLGQNAQTMAYNITPLRRATVECVKDQFGFINYEVGDSKKLFFHVKEVQDGIELQAGDEVEFSVILNQRTGKCSACNVWRVCEGPKAVAAPRPDRLVNRLKNITLDDASAPRLMVLRQPRGPDNSMGFGAERKIRQAGVID
modifications: radiolabelled with [35S] methionine
notes: numbers count on: Unr protein isoform 2; Same pET21d plasmids as for the histidine-tagged recombinant Unr; also called wt Unr; CSDE1; source: in vitro transcribed/translated from pET21d plasmid (TnT Quick Coupled System, Promega), not purified
percent pull-down with RNase A relative to no RNase A: 79%
